Results reported in US20040081647A1.

Target: recombinant human TNFα (RDI) (human) (UniProt P01375)
Experiment: cell-based or functional assay

Sequence of recombinant human TNFα (RDI) (human) (P01375 77-233 limits assumed): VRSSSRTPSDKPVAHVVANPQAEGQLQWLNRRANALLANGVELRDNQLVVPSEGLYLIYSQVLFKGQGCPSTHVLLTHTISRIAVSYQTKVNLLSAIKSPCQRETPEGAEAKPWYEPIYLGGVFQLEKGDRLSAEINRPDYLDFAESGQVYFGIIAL

B1: MMP7 (enzyme, UniProt P09237 95-267, looked up, species assumed)
Matrilysin: YSLFPNSPKWTSKVVTYRIVSYTRDLPHITVDRLVSKALNMWGKEIPLHFRKVVWGTADIMIGFARGAHGDSYPFDGPGNTLAHAFAPGTGLGGDAHFDEDERWTDGSSLGINFLYAATHELGHSLGMGHSSDPNAVMYPTYGNGDPQNFKLSQDDIKGIQKLYGKRSNSRKK
- survival of L929 cells at the dilution equivalent to ˜600 pg/ml TNFα after digestion: 40 % survival
